The values below come from the DeepSol protein solubility set.

A short description of this data set: soluble on expression in E. coli; label from the status in PepcDB or PDB records.
Turning to “MKNNKIYLLGACLLCAVTTFAQNVSLQPPPQQLIVQNKTIDLPAVYQLNGGEEANPHAVKVLKELLSGKQSSKKGMLISIGEKGDKSVRKYSRQIPDHKEGYYLSVNEKEIVLAGNDERGTYYALQTFAQLLKDGKLPEVEIKDYPSVRYRGVVEGFYGTPWSHQARLSQLKFYGKNKMNTYIYGPKDDPYHSAPNWRLPYPDKEAAQLQELVAVANENEVDFVWAIHPGQDIKWNKEDRDLLLAKFEKMYQLGVRSFAVFFDNISGEGTNPQKQAELLNYIDEKFAQVKPDINQLVMCPTEYNKSWSNPNGNYLTTLGDKLNPSIQIMWTGDRVISDITRDGISWINERIKRPAYIWWNFPVSDYVRDHLLLGPVYGNDTTIAKEMSGFVTNPMEHAESSKIAIYSVASYAWNPAKYDTWQTWKDAIRTILPSAAEELECFAMHNSDLGPNGHGYRREESMDIQPAAERFLKAFKEGKNYDKADFETLQYTFERMKESADILLMNTENKPLIVEITPWVHQFKLTAEMGEEVLKMVEGRNESYFLRKYNHVKALQQQMFYIDQTSNQNPYQPGVKTATRVIKPLIDRTFATVVKFFNQKFNAHLDATTDYMPHKMISNVEQIKNLPLQVKANRVLISPANEVVKWAAGNSVEIELDAIYPGENIQINFGKDAPCTWGRLEISTDGKEWKTVDLKQKESRLSAGLQKAPVKFVRFTNVSDEEQQVYLRQFVLTIEKK”, the “soluble on expression in E. coli” value is reported as “soluble”.

For the sequence “EVQLQQSGAELARPGASVKMSCKASGYTFTSYTMHWVKQRPGQGLEWIGYINPSSGYSNYNQKFKDKATLTADKSSSTAYMQLSSLTSEDSAVYYCSRPVVRLGYNFDYWGQGSTLTVSSAKTTPPSVYPLAPGSAAQTNSMVTLGCLVKGYFPEPVTVTWNSGSLSSGVHTFPAVLQSDLYTLSSSVTVPSSTWPSETVTCNVAHPASSTKVDKKIVP”, the “soluble on expression in E. coli” value is given as “soluble”.

For “MLTLSPPPAYLVTAANPAPSVAAAAPRALVFGGSGQIGERLLTRLLGRGWQVTAWSRAPRAARAGLIWRQGDLAAPAVAGESFEVIFSCGPLDHFAHWYETNAVSTPRIVAFGSTSVEVKEHSIDAAERDVAQRLANAEQALFSAAKARGAAATVLRPTLVYGAGRDRTLTQIAGLARRTGAFVLPANATGLRQPVHVDDLASAALAVVTQPATHQRSYAVGGGEVLAYTQMVERVLEALPRPARLYQVPPSLFGLALTTAQRLGRLRSLNTAALQRMRDDLVFDLEPARRDFGYAPRAFRPLPEELGIGELEHHHHHH”, the “soluble on expression in E. coli” value is on record as “not soluble”.

Turning to “HSGEDLPMVAPGNVRVNVVNSTLAEVHWDPVPLKSIRGHLQGYRIYYWKTQSSSKRNRRHIEKKILTFQGSKTHGMLPGLEPFSHYTLNVRVVNGKGEGPASPDRVFNTPEG”, the “soluble on expression in E. coli” value is “soluble”.

In the case of “MKPVQLTVDNIAKAIFTVNRHAKTALNPSFLYLLKKKAIEKLLEEGKAKKVGLHFSRNPKYSQQQSDVLVAVGDYYFHIPPTKQDFAALPHLGSLNDSYRNPPARMPLSEAKAILIAYTGLREKPEQKPKRLTRPVFKRLGDRY”, the “soluble on expression in E. coli” value is reported as “not soluble”.

In the case of “EQEMVQVFIPAQAVGAIIGKKGQHIKQLSRFASASIKIAPPETPDSKVRMVIITGPPEAQFKAQGRIYGKLKEENFFGPKEEVKLETHIRVPASAAGRVIGKGGKTVNELQNLTAAEVVVPRDQTPDENDQVIVKIIGHFYASQMAQRKIRDILAQVKQQHQK”, the “soluble on expression in E. coli” value is recorded as “soluble”.

Turning to “MSSSSFTTERPFTPELLSPAGTLKNMRYAFAYGADAVYAGQPRYSLRVRNNEFNHENLALGIQEAHALGKRFYVVVNIAPHNSKLKTFLRDLKPVIEMGPDALIMSDPGLIMMVRDAFPQMDIHLSVQANAVNWATVKFWQQMGLTRVILSRELSLEEIAEIRAQVPEMELEVFVHGALCMAYSGRCLLSGYINKRDPNQGTCTNACRWEYNVQEGKEDDVGNIVHIHQPIAVKNVEPTLGIGAPTDKVFVIEEAQRPGEYMTASEDEHGTYIMNSKDLRAIQHVERLTQLGVHSLKIEGRTKSFYYCARTAQVYRRAIDDAVAGKPFDPSLLTTLEGLAHRGYTEGFLRRHVHEEQQTYEYGYSVSERQQFVGEFTGVRREGLAEVLVKNKFSRGDSVELMTPKGNIQFTLESMQDKKGQPADIAPGNGHIMYLPIPEEIDVEYGLLIRNLNGTNSRNPHEKA”, the “soluble on expression in E. coli” value is listed as “not soluble”.

“MGSDKIHHHHHHMPTGNELPINEGASALQMANTIFGPGVTVNTASYTGWSQSSGIYTNGDSVAPGVTPSDTGVILSTGRASHITQSNGDPNRSDSTSTNTPGPSNDPDFNAIAGFVGSNDASFLEVNFTPTTDVLTMQFTFASEEYPEYTGSVFNDIFGVWVNGALVASPVVNVTQINSVNQSENATLFNNNTDDDYNTEMDGFTVTLTLVMPVNINQPNDIKIGVADVADSAYDSNVLIAAGSIQGEFVAESDSITHLEGLTSVLDVLANDPTSGGIAFITHINGVEVNPGDSVTLSDGTIVTLLPSGELQIDPPATQTGLTSSETIHFTYTVDNGSGITDTAFVTVTAIPCFARGTMILTAHGEKPVETLVPGDRIATRDNGLQEIRWIGTRKVAAEGRFAPIAIEAGTFGMHRRLVVSPQHRVMLTHWMAEVMFGEDEVLVAAKDLVNDCSVRVLGPGDFDDGEVEYFHLLFDQHQIIFSDGLATESFLPGPTVMNDLDAAVQEEVLALFPDIDPDTKDGYGPAARLPLRAFEARAMLA”: the “soluble on expression in E. coli” value is “not soluble”.

Consider “MGSDKIHHHHHHMFDWENVRHFLAVARIGTLSGAARSLKVDHATVSRRLSALEDEIKTRLIERLPRACKLTLIGQRVFELAQGMEEDAYAIERFVDASRSPLSGKVSLSAPPVLVAHFLAKHLADFRRVHPGVQLSVSGEARQISLSRREADVALRLVRPEEGTSVVRKLGRMSFDLYASRDYPHLHNPSAWEFISYDAGFTDMPQQKWLMSVARGRPIACEISDINGHLAATQAGAGVAGLPDFLADTDAKLQRVAYDGEPFSRDIWLAVHRDLRRSPHVRAVMDFLLKIVKENPAFTISG”, for which the “soluble on expression in E. coli” value is on record as “not soluble”.

In the case of “MAHHHHHHMNRGCLLGEYTGRCLGESAHVRSNLICALCCVTRSQIIYIYIYIYFAVVVEEVPIVTCTNIIMSSVVSRREETHFCLRYFRIPSNKKNVFSLLYRQLLFNSLINHCF”, the “soluble on expression in E. coli” value is recorded as “not soluble”.

For the sequence “MSLQRLNVEFRSEGVALRGWLYLPEARAERPAIVMTHGFSGVKEQYLDRYAEVFAAAGFVVLLYDHPNFGDSDGEPRQEIDPVMQRRGYRDAITWLGAQARVDASRIGIWGTSYSGGHVLEVAALDRRVKCVVAQVPTVSGHASALRRTRAEQLPALLASFDADRQRRFEGLPPALLPAVAASPDEPCAMAGADAHRFFTDSAALAPNWCNRVTLRSAELARENEPGIHIGRISPTPLLMIVADRDLLTPTDLCLEAYQRALPPKRLLMLAGGHFTPYIEHFDATSQAAADWFVRHLGEGGEQPATVVEEGGSHHHHHH”, the “soluble on expression in E. coli” value is “soluble”.

Turning to “MAHHHHHHMSKKRKSYENDEDVYDNKRNKKNVASSIDSYGRKVWDKEYYQKKVDEKVENDEDELILKLLPDLKKKSKLEPPPPSERKLLEERKENLLLEKNLGKVQILTQKTPKNEQGGYYCKICDCVLKDSQTYLDHINGKNHNRMLGYSMKVKKVTLDDVKKRLSLLKDKKQNKTEDVEKDPYEDAKKNLKDMQEDEERRIQKRKEKKMLKKLEKEKKKNENENENNDEESDNMNMMFKEMGLPTSFV”, the “soluble on expression in E. coli” value is listed as “soluble”.

“MAFICELDEQWSYVGSKARQHWLGYAYNTKTGGVLAYTFGPRTDQTCRELLALLTPFNIGMLTSDDWGSYGREVPKNKHLTGKIFTQRIERNNLTLRTRIKRLGRKTICFSRSVEIHEKVIGAFIEKHMFYLEHHHHHH”: the “soluble on expression in E. coli” value is “soluble”.

On to “MGSDKIHHHHHHMKSCLYFTFIVLFLTACSTKNLTSLHRENLEQKNENQHYVKLEYEQNVNILPQFAYDINFDAKRYKKYFFNPWHDSFKNYKGQNIFWSFPLYLNSKNTYYFFNKQIIPLSWFKNAINNANIQEFGKLNQKALIIQNTIIKNLPTQRAILKNPFFENEGIPFDYASDGILNTGAPVLISHFSKDKRYAFVLGEAGFGFVESKNLEFFSNDRAKIYENLNFITPLKEKFAIYSEDGKFLFESRIGAIYPYYKEDKNYFYGKIGSKKYKISKKDVSKFPLQFNDKNLKNQLSQVLNLPYGWGGYNFERDCSLLTRDIFSAFGLYLPRNSAAQKNSFNHFDISTLSNSQKKDFLNRFGKAYLSLLYLPGHIMLYAGQITDNNIAIHNIWGLRKDATQRLLISSSVITSLEIGKNEILEDNLLLSRLKEISFINLNEQEKEQIKSYLENIQNK”, for which the “soluble on expression in E. coli” value was “not soluble”.

Consider “MSLEVKVGLAPMAGYTDSAFRTLAFEWGADFAFSEMVSAKGFLMNSQKTEELLPQPHERNVAVQIFGSEPNELSEAARILSEKYKWIDLNAGCPVRKVVKEGAGGALLKDLRHFRYIVRELRKSVSGKFSVKTRLGWEKNEVEEIYRILVEEGVDEVFIHTRTVVQSFTGRAEWKALSVLEKRIPTFVSGDIFTPEDAKRALEESGCDGLLVARGAIGRPWIFKQIKDFLRSGKYSEPSREEILRTFERHLELLIKTKGERKAVVEMRKFLAGYTKDLKGARRFREKVMKIEEVQILKEMFYNFIKEVEGGSHHHHHH”, for which the “soluble on expression in E. coli” value is given as “soluble”.

Take “MSGIAAGRLAEERKHWRKDHPFGFIAKPVKNADGTLNLFNWECAIPGRKDTIWEGGLYRIRMLFKDDFPSTPPKCKFEPPLFHPNVYPSGTVCLSLLDENKDWKPSISIKQLLIGIQDLLNHPNIEDPAQAEAYQIYCQNRAEYEKRVKKEAVKYAAELVQKQMLE”: the “soluble on expression in E. coli” value is “not soluble”.

For “MGSDKIHHHHHHMIGYGLPMPNQAHFSASFARPSTPAAKCMHHIRLGQQLIRNELVEATGLSQPTVTRAVTALMQAGLVRERPDLTLSSGPGRPNIPLELAPSPWIHAGVAIGTKSSYVALFDTKGRTLRDAMLEISAADLDPDTFIEHLIAGVNRLTTGLDLPLVGIGVATSGKVTNAGVVTASNLGWDGVDIAGRLNYQFSVPATVASAIPAIAASELQASPLPHPEQPTPITLTFYADDSVGAAYSNDLGVHVIGPLATTRGSGLDTLGMAAEDALSTQGFLSRVSDQGIFANSLGELVTIAKDNETAREFLNDRATLLAHTAAEAAETVKPSTLVLSGSAFSEDPQGRSVFASQLKKEYDADIELRLIPTHRENVRAAARAVALDRLLNEPLTLVP”, the “soluble on expression in E. coli” value was “not soluble”.

For “MKRLRNKMTTEELAECLGVAKQTVNRWIREKGWKTEKFPGVKGGRARLILVDTQVCEFIQNTPAFHNTPMLMEAEERIAEYAPGARAPAYRQIINAIDNMTDIEQEKVAQFLSREGIRNFLARLDIDESA”, the “soluble on expression in E. coli” value is reported as “not soluble”.

For “MERFDAVIIGAGAAGMFCAAQAGQAGSRVLLIDNGKKPGRKILMSGGGRCNFTNLYVEPAAYLSQNPHFCKSALARYTQWDFIDLVGRYGIAWHEKTLGQLFCDDSAQRIVDMLVAECDKGGVTMRLRSEVLSVERDESGFVLALNGETVTTQKLVIASGGLSMPGLGASPFGYKIAEQFGLKVLPTRAGLVPFTLHKPLLEQLQTLSGVSVPCVITARNGTVFRENLLFTHRGLSGPAVLQISSYWQPGELVSINLLPDLSLEDVLNEQRNAHPNQSLKNTLAMHLPKRLVECLQQLGLIPDVSLRQLNVRDQQTLVDTLTAWQVQPNGTEGYRTAEVTLGGVDTNELSSRTMEARRVPGLYFIGEVMDVTGWLGGYNFQWAWSSAWACAQDLIALKIN”, the “soluble on expression in E. coli” value is listed as “soluble”.

For the sequence “MGSDKIHHHHHHMNYPTTRLNWPRAWRVIPSRFPAVGLFERVASPDDFDALYALEAMTNDRLRDEVGDISLVPPEERLFGPGSTCIMAAFTHLNPQGSRFSDGSYGVFYCARKRDTAIAETRYHSARFMQATREPPMRLQMRLYSVQARGEAADLRVASKSDPRIVAPDDYSYPQAIGRSLRAAGALGIVYPSVRHSGGGCLAALRTGIVKNCLHAAYLEYNWNGEGIDAVFEVNRVL”, the “soluble on expression in E. coli” value is recorded as “not soluble”.
